In one assay the target is T1, murine Il2rg (murine, UniProt P34902 23-369).
T1 construct: whole, on cells; also called mouse IL2RG; murine IL2rg receptor
T1 sequence (looked up): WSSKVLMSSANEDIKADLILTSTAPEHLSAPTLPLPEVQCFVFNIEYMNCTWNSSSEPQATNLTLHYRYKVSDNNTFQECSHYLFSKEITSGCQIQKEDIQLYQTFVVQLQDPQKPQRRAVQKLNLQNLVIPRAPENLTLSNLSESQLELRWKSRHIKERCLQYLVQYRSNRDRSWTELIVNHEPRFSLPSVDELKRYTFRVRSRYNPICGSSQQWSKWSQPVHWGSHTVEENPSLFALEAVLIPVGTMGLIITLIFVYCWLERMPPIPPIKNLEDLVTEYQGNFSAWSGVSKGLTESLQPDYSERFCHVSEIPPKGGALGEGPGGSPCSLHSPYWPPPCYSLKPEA
The assay can be described thus: stated in Example 1 for donor T cells of wild-type mice; no binding assay described.

The target of assay [1] is T2, Human IL2RG (interleukin-2 receptor subunit gamma), wild type (human, UniProt P31785 23-369).
T2 construct: also called wild type human IL2RG; WT IL2RG
T2 sequence: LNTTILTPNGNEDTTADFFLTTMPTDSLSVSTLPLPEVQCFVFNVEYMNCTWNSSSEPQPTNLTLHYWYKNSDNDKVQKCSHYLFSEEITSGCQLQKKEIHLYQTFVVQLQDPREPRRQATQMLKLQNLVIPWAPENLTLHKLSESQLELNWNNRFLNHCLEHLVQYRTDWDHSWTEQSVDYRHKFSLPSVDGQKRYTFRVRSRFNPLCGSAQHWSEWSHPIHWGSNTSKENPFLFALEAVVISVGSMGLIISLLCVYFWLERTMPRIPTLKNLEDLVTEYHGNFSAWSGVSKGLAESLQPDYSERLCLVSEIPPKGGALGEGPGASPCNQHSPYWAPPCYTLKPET
The assay can be described thus: flow cytometry on iPSC-derived NK cells. (In flow cytometry, cells or beads pass a laser one at a time.)

The target in assay [2] is T3, recombinant human IL2RG extracellular domain (human, UniProt P31785 23-262).
T3 construct: also called IL2RG ectodomain; ECD
T3 sequence: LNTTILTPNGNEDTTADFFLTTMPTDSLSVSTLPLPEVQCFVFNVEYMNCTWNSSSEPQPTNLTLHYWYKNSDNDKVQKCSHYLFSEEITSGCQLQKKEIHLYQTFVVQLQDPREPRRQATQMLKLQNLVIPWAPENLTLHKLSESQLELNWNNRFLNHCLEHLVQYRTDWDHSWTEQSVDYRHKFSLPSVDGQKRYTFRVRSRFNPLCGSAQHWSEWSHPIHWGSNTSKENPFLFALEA
The assay can be described thus: cryoEM of the complex.

B1: REGN7257 (antibody, human IgG4 S228P, kappa, V domains shown)
VH: EVQLVESGGGLVQPGGSLRLSCAASGFIFSSYEMHWVRQAPGKGLEWISYISSSGTTIYYADSVKGRFTISRDNAKNSLYLHMNSLRAEDTAVYYCTRARITGTFDVFDIWGQGTMVTVSS
VL: DIQMTQSPSSLSASVGDRVTITCRASQSISSYLNWYQQKPGKAPKLLIFAASNLQSGVPSRFSGSRSGTDFTLTISSLQPEDFATYYCQQNYNIPYTFGQGTKLEIKR
notes: also called H4H12889P; anti-IL2RG antibody
Turning to B1, the binding result with murine Il2rg is “no binding”; in assay [1] it was “binds”.

B2: REGN7257 Fab region (Fab, V domains shown)
VH: EVQLVESGGGLVQPGGSLRLSCAASGFIFSSYEMHWVRQAPGKGLEWISYISSSGTTIYYADSVKGRFTISRDNAKNSLYLHMNSLRAEDTAVYYCTRARITGTFDVFDIWGQGTMVTVSS
VL: DIQMTQSPSSLSASVGDRVTITCRASQSISSYLNWYQQKPGKAPKLLIFAASNLQSGVPSRFSGSRSGTDFTLTISSLQPEDFATYYCQQNYNIPYTFGQGTKLEIK
notes: Fab region of REGN7257 used for cryoEM
Regarding B2, the binding result in assay [2] is recorded as “binds”.

Values taken from patent US20240390460A1 (Regeneron, published 2024).
